According to the DeepSol protein solubility set:

Assay: soluble on expression in E. coli; label from the status in PepcDB or PDB records

Soluble on expression in E. coli, not soluble:
MGSDKIHHHHHHMASAATEGQLADWRTRALKLEDEVKKVIVGQDAAIRLINIAIFARGHVMLEGGVGVGKTTLLQSVARGIGGAYERIEGTVDLMPNDLVYHTFLGPEGRPQIDEGPLLRAGENLSVFFFNEINRARPQVHALMLRVMAERHLHAFKREYRLPHMVVFADRNQVEKNETFEIPSAARDRFMMEIPIHVPEDKALRKSLVFDTRFQHAEQLTHTVESGLLPFNMLNDFSDVVQNHVQSSQALEDYVIDLWDATQKPQDFGITLEGIDMQRLIQAGASPRGMGMLLKAARVHAWLMEREYVYPEDIHAVFHEVIAHRLVFNSMYESRRTVLARELTAKILQTVAVPS
MKKVYIKTFGCQMNEYDSDKMADVLGSAEGMVKTDNPEEADVILFNTCSVREKAQEKVFSDLGRIRPLKEANPDLIIGVGGCVASQEGDAIVKRAPFVDVVFGPQTLHRLPDLIESRKQSGRSQVDISFPEIEKLEHHHHHH
MLFYLISAIIFTTVAFAAPTPAPTLTVAEEMEAIFQNLTEEAQNDYFQILFDHTLTLAELDQKWDEWAEKHGIADKWAVYTSKWQARKEKFNETTVSVIERLPSTYKMLSEITANRNQTLSQVETALEELKEKFNLEVQLILILSKTLILNEEIVLGGGPIEVGNEVTGNSFRRMRDFKNKNRDVKSLLIPGPL
MGSDKIHHHHHHMDRFDLGIVKVHRIEEWRGTFSPPAELFDGFSPDGWEPHAEEFAPEYYDPVSGKLFAFLQSWVLDTGTQRILFDTGAGNDKDRPNLPIFGNLQTGFLDNLAAAGFQPEDIDVVVCSHIHVDHVGWNTRLVDGRWEPTFRNARYVLPLADRAYWDPQDASAGPAGIGAAVNAGMFDDSVRPIIEAGRAEWAEDGFEVAEGLVLRSCPGHTPGSMMLEVSGGEDTAMFVGDVVHHPAQIYRPEWNSIFCEAPEDARETRRRVLDLAASREALLIPAHFGGSHMARVLRDGSGFRPVLDPMGSG
MGSDKIHHHHHHMYQVPLEMICRHDRTAEVCRAAVEEDGWQLENVPEEMKTPELCRKALETEAGFGNDFHRGLVQHIPSPEVCMEVLKECRENNPEELYGVAVAIRPEVMNGEMADFLLPLDGRCISILPVHLQTPERVRVAVETSGMSAVGRGGVPKSLLTPDVYVRCAAHSRESLMMIPWAERSPEVCLMAKTLYPDIVKNHPEFVPESVRNQDSIYTLNSLMESLTGEKFSYRQMTDFYNGKPLDVKRMETPDGVQKDKAVKFDKETGKFSFSDIRQERKRGLKM
MGSDKIHHHHHHACSDDDKVSISTVGITTTVDTTIEGLQLTGGTYTFENVNTSVKTDITYPAQSIELADGLYNVTFIGKGTYSQNGTPVEVDVQGVQQNVAVSGGSYKLELKVHVLNTGDPDFVIAEIFIPGTYNEAGKQYNGDQYIRIYNNSDKVLYADGLIFMESQFQTTQKYQSVDPDIMDEAIAVGSVVAVPGSGTDYPVQPGESFILCDNAINHKEANPNSIDLSKANFEWYIESKQDVDNPAVPNLDVYYCYSKTIWVLNKQGNRAYAIGRLPKSMTKEKYISDYAYNYTYIMQNGTASKPQSKYKFPNEWVIDAVNVGASNEWQWNVTSTGLDMGHTYIGMNNTVAENIGKCVMRKAAYKDGDREVLQDTNNSTVDFTPAATPSLFNK
MDELFEEHLEIAKALFAQRLPYWCDVFLRPADQAFNAYLNARGQASTYLVLEGFDPVYVPRGCDLDAVRATARARARLREAGLGEDALPVLL
SYSKTNEAAIEKTRHIANAAVYGRPEYRYNGALNLHYRPKRTDSTLLLNGGMNLNGEVLIEGGNMIVSGRPVPHAYDHQAKREPVLENEWTDGSFKAARFTLRNHARLTAGRNTAHLDGDITAYDLSGIDLGFTQGKTPECYRSYHSGSTHCTPNAVLKAENYRALPATQVRGDITLNDRSELRLGKAHLYGSIRAGKDTAVRMEA
MGSDKIHHHHHHMTHDTSPIHRTIELPDELLVGAIDTHIHSGPWLKSCPGRLDPFQIAEQAKQAGMRAVVFYDHTFGNSAGTSWMVRRSVPGIDVYGGIILTTNFGGMNPRAVKTALHYGDGAKFVHFGTHCTYHMASREGSYVDGKPVPFKDLYPKFAEQELARAIRIPLDGPVPGELEEILGLVAGHPDVYLNTGHISPGEVMRLAELAERFGIRKMIVAHPARAWLSTAQQKDLSARGFFLEGSVSDWLFHRGLPRTNYYVEREYADEIAGIANEPQFQGVVQWASQLREVGLANVVLGTDYGIGSCPAPREGMRLLISTLLDLQFSLAEIELLTRRNPARLLGLE
MGSDKIHHHHHHMSLVVGSARIDENGHISGGKPGDQTGNEVSTQAYYVHSKGWYCLRPKSITVANAIAEAMLQGCRNNNIGYCQGHRSNVIEQLRRVGKLSKISVKTEADCSSLVRACCIQAGFDPGNFNTASEASALKATGQFMEAIAVTSKTELFNGDVLVTKTKGHTVVVVSGNPRHGNTYYPKYEGTSGSIITALAAVGEKDTSKAHRAKIAAANGITNYAYTAAQNTKMVNLLKKGKLIKA
MAGNANSVDEEVTRILGGIYLGGIRPIIDHRPLGAEFNITHILSVIKFQVIPEYLIRKGYTLKNIPIDDDDVTDVLQYFDETNRFIDQCLFPNEVEYSPRLVDFKKKPQRGAVFAHCQAGLSRSVTFIVAYLMYRYGLSLSMAMHAVKRKKPSVEPNENFMEQLHLFEKMGGDFVDFDNPAYKQWKLKQSIKLDPSGSELVSNSGMFKDSESSQDLDKLTEAEKSKVTAVRCKKCRTKLALSTSFIAHDPPSKESSEGHFIKRAANSHRIIDIQESQANCSHFFIEPLKWMQPELQGKQELEGKFSCPGCSSKVGGYNWKGSRCSCGKWVIPAIHLQTSKVDQFPLQSTALPNMVNFESEKVNR
MAGFSVNSPKARKSDQELVAGVLEDKKQFAAIVQRYEEPLFRYIVRQGARDRELARDILQEVFIKVYLHLNDYDASLPFSSWIYRIAHNETITHFRKEKNRPLVLDKGDDDEFFGKIVDDLELSRADGQYDVSDIQTVLERLEPRYRDILVLKFFEDKSYEEISDILQMPQGTVATLINRAKKKVKASLEKN

Soluble on expression in E. coli, soluble:
MNNRDQLFKAPPFENHSPLTWYQAASQLPNFIRDDAQAAAIEHLDRLWTELMMFKRKRNRFLGRSLRSPQVPKGLYFYGGVGRGKSFLMDAFFGCLPYRRKRRVHFHAFMAEIHRRLKALKSESNPLKSVAAEITKETRVLCFDEFHVSDIADAMILGRLLENLLNEGVVLVATSNYAPSELYPQGQNRSGFLPTIALIESSLTVLNVDGGEDYRLRTLRPAEIFFTPANEENEAKLAKLFKEMTGITDLNPGISTIHGREIPHKAESGRTIWFDFRALCFSPRSQSDYLYLAEHYEMVFISGLEQLSPQEKAEARRLTWLIDVLYDFRVKLCATGAVDVNHIYTEGDFAEEFTRTASRMVEMQSEVYLEQPHLTLSPKASGGLEHHHHHH
MGSSHHHHHHSSGENLYFQGHMSVSAFNRRWAAVILEALTRHGVRHICIAPGSRSTPLTLAAAENSAFIHHTHFDERGLGHLALGLAKVSKQPVAVIVTSGTAVANLYPALIEAGLTGEKLILLTADRPPELIDCGANQAIRQPGMFASHPTHSISLPRPTQDIPARWLVSTIDHALGTLHAGGVHINCPFAEPLYGEMDDTGLSWQQRLGDWWQDDKPWLREAPRLESEKQRDWFFWRQKRGVVVAGRMSAEEGKKVALWAQTLGWPLIGDVLSQTGQPLPCADLWLGNAKATSELQQAQIVVQLGSSLTGKRLLQWQASCEPEEYWIVDDIEGRLDPAHHRGRRLIANIADWLELHPAEKRQPWCVEIPRLAEQAMQAVIARRDAFGEAQLAHRICDYLPEQGQLFVGNSLVVRLIDALSQLPAGYPVYSNRGASGIDGLLSTAAGVQRASGKPTLAIVGDLSALYDLNALALLRQVSAPLVLIVVNNNGGQIFSLLPTPQSERERFYLMPQNVHFEHAAAMFELKYHRPQNWQELETAFADAWRTPTTTVIEMVVNDTDGAQTLQQLLAQVSHL
MSLEYKLTPSYLLKENMVLACGNILFADDGFSVHVIEKLQELLTEEEKENIALVDAGAGAPQQVLTLIDSEAKTKKIIVVDIIDYGLEPGEIKILTMDDLPKPEHTKVDSHDWPLSTTMYRVFRDAPHEIDFKVVGCQKKYVSEPDVVIELSEEVQNAVDVAVDIVLSELRGKPINEGHHHHHH
MPDSPVDVKTQSRLTPPTMPPPPTTQGAPRTSSFTPTTLTNGTSHSPTALNGAPSPPNGFSNGPSSSSSSSLANQQLPPACGARQLSKLKRFLTTLQQFGNDISPEIGERVRTLVLGLVNSTLTIEEFHSKLQEATNFPLRPFVIPFLKANLPLLQRELLHCARLAKQNPAQYLAQHEQLLLDASTTSPVDSSELLLDVNENGKRRTPDRTKENGFDREPLHSEHPSKRPCTISPGQRYSPNNGLSYQPNGLPHPTPPPPQHYRLDDMAIAHHYRDSYRHPSHRDLRDRNRPMGLHGTRQEEMIDHRLTDREWAEEWKHLDHLLNCIMDMVEKTRRSLTVLRRCQEADREELNYWIRRYSDAEDLKKGGGSSSSHSRQQSPVNPDPVALDAHREFLHRPASGYVPEEIWKKAEEAVNEVKRQAMTELQKAVSEAERKAHDMITTERAKMERTVAEAKRQAAEDALAVINQQEDSSESCWNCGRKASETCSGCNTARYCGSFCQHKDWEKHHHICGQTLQAQQQGDTPAVSSSVTPNSGAGSPMDTPPAATPRSTTPGTPSTIETTPR
MAHHHHHHMSDEAARQQRSAELADQVRTFFATYAGSAEERLDVVRGYEKCRGDFKKMVREYLLFDNGVEAEVQRLHRLVSTLIELGNLSPTPAWKSTSTPEALLRLEKAMHRERQEAENVLKDMAGSGTGAAGAADGDLSSLQVMIRQRQQSSYESMLNHLESKYVTKKSNARESSSAHVRPHRPLARTNVLPKSTGKPLITGKSGTCAEEASASGIRPGNVGRIPLSTAVIFCFLCYCGRYRSWLNACDLSPHLLTQPPKFPAWLRGQPITVL
QGMIMTSDIKLLDYLRVRRSTPALQLSEPGPSKGEIEEILRLAVRVPDHGKLAPWRFVVYRGEERVRLSEAALRIALEKNPDLDLQQQEAERTRFTRAPVVIAVISTAKPHFKIPEWEQVMSAGAVCLNVIFAANASGFAANWLTEWLAFDPAFLAEIGVSAEEKVAGYIHIGSTTFPPVERPRPELADVVTWVGDV
MSLKRIVVANDLVGVGKVALSASIPLMASCLLEQVLLPTCLLSSHTGGGQNPVKHTTSSILDVFLTDWDNKRIKFDGIFIGYFTTTRDGQKLLEWLSRKQLPLILDPIMADNGKLYQGFSQKHIEIMIKLTQKAELVLPNISEACLLTQTAYLAKNYDEEDIRQVARKLAKLGPKQVVISGISFEEGSIGFAYYQSDSDQLTFHFGKQFPYHFYGTGDIASAIITAGFYYQLPLTQILDLVVSFLEKVLQNTLTLKRDLILGVAYESHLNYLTKSFKKLLEEKNVISKISEGHHHHHH
MSLAAPLTVGFSQVGSESGWRAAETNVAKSEAEKRGITLKIADGQQKQENQIKAVRSFVAQGVDAIFIAPVVATGWEPVLKEAKDAEIPVFLLDRSIDVKDKSLYMTTVTADNILEGKLIGDWLVKEVNGKPCNVVELQGTVGASVAIDRKKGFAEAIRNAPNIKIIRSQSGDFTRSKGKEVMESFIKAENNGKNICMVYAHNDDMVIGAIQAIKEAGLKPGKDILTGSIDGVPDIYKAMIDGEANASVELTPNMAGPAFDALEKYKKDGTMPEKLTLTKSTLYLPDTAKEELEKKKNMGYEGHHHHHH
GAMSVASLPECVKNFFPTEQLEFSSSITADEKPVLHEVFQKHSCFSQCGEMIDEVSKKHPELGKRLATVLEGNKKRLDGLSPAAVEYAKKLIHMVTTTLCSLTVGKPIDDADAKRLHQEFQSLSSEDQAALRKNNPDIKF
